Laboratory results: article PMC11480844

B1: H2-Kb / B6 (parent)
chain 1: GDSVTQTEGLVTVTEGLPVKLNCTYQTTYLTIAFFWYVQYLNEAPQVLLKSSTDNKRTEHQGFHATLHKSSSSFHLQKSSAQLSDSALYYCALSLGNAGAKLTFGGGTRLTVRP
chain 2: EAAVTQSPRNKVTVTGGNVTLSCRQTNSHNYMYWYRQDTGHGLRLIHYSYGAGNLQIGDVPDGYKATRTTQEDFFLLLELASPSQTSLYFCASSDGMISSSYEQYFGPGTRLTVL
chain 3: not shown
chain 4: IQKTPQIQVYSRHPPENGKPNILNCYVTQFHPPHIEIQMLKNGKKIPKVEMSDMSFSKDWSFYILAHTEFTPTETDTYACRVKHDSMAEPKTVYWDRDM
chain 5: SIINFEKL

Variants of: B1
Assay: % of reporter cells activated (NFAT-GFP), raw; also: test concentration or dose not given here
Parameters: unit not given here
Conditions: with B6

Ratio to parent of substitutions, site by site:
chain 5 I3: V 0.886, W 1.19, Y 1.23
chain 5 K7: A 0.832, C 1, D 0.819, E 1.11, F 0.812, G 0.913, H 0.926, I 0.899, L 0.785, M 0.765, N 0.664, P 0.758, Q 1.09, R 0.477, S 0.644, T 0.94, V 0.872, W 0.638, Y 0.738
chain 5 L8: A 0.53, C 0.725, D 0.456, E 0.329, F 0.523, G 1.09, H 0.859, I 0.758, K 0.819, M 0.718, N 0.765, P 0.671, Q 0.738, R 0.812, S 0.53, T 0.55, V 0.403, W 0.604, Y 0.805
chain 5 N4: A 1.17, C 1.25, D 1.29, E 0.913, F 1.87, G 0.752, H 0.973, I 1.05, K 0.926, L 2.7, M 2.76, P 1.13, Q 0.993, R 1, S 1.03, T 1.1, V 0.893, W 0.832, Y 0.913
chain 5 S1: A 1.1, C 1.05, D 1.13, E 1.12, F 1.18, G 1.01, H 1.12, I 0.919, K 0.993, L 1.13, M 0.973, N 0.872, P 0.953, Q 0.926, R 0.611, T 1.07, V 0.826, W 1.01, Y 1
